# Target: the molecule itself
# Test: SEC; Superdex 200 increase 10/300; retention volume compared with Bio-Rad gel filtration standards; 20 mM Tris-HCl pH 8.0, 150 mM NaCl
protein,measurement,value
"gastrointestinal HAstV-VA1 capsid spike (HAstV-VA1^gastro spike), residues 408-684 (domain or fragment, Capsid precursor protein (VP86, ORF2) of human astrovirus VA1, gastrointestinal strain, NCBI YP_003090288.1, spike structural domain residues 408-684; C-terminal thrombin site and 10-histidine tag; tag removed with thrombin before SEC and crystallisation; Homodimer; also called VA1 Spike^Gastro; HAstV-VA1 spike; source: E. coli T7 Express, purified (TALON, thrombin digestion, SEC on Superdex 200 …)) PIPPTGVPVGDFYVCGRMTTLHMGGQSGIQATTLVNGMIYRTDHPEPSTSPVSNWEFTVLENNTIVGAGMGCVWFQKSEALVWTLDGQKLSGWNTLDGVGTTQLTVAWRQHNRTIYGWANVVAWNSEEWHTNAEQPHQPILRLTYWLVKINVLSEPEDFDVVQKSPLAYLEDYTTAQSKSAIQKLNFQTFQKPEGGGTLRAQYSTTPRQGDFAVIWQIGRHNFDMSTGKGTPVESLSDYVMPQQKDAHIGMWYRALTSVGPRSDVLTLHFHLPTVEK",stoichiometry N,2

# Source: PMC10950212, “Structure and antigenicity of the divergent human astrovirus VA1 capsid spike” (PLOS Pathogens, 2024)
